Positions count from the first letter of the chain named.
B1: AbG-ZZ (antibody, V domains shown)
VH: EVQLQESGPGLVKPSQTLSLTCTVSGYSISNDFAWNWIRQLPGKGLEWMGYISYKGNTRYQPSLKSRITISRDTSKNQFFLKLNSVTAADTATYYCVTASRGLPYWGQGTLVTVSS
VL: DIQMTQSPSSMSVSVGDRVTITCHSSQDITYNIGWLQQKPGKSFKGLIYHGANLDDGVPSRFSGSGSGTDYTLTISSLQPEDFATYYCVQYDEFPWTFGGGTKLEIKR
modifications: synthon ZZ on reduced interchain Cys
B2: AbK-XW (antibody, V domains shown)
VH: B1 VH with N31R, L41P, K55N, L103F, Y105W
VL: B1 VL with I33V, A52S, D56H, E93D
modifications: synthon XW on reduced interchain Cys
B3: AbK-SR (antibody, V domains shown)
VH: B1 VH with N31R, L41P, K55N, L103F, Y105W
VL: B1 VL with I33V, A52S, D56H, E93D
modifications: synthon SR on reduced interchain Cys
B4: AbG-KZ (antibody, V domains shown)
VH: B1 VH
VL: B1 VL
modifications: synthon KZ on reduced interchain Cys
B5: AbG-CZ (antibody, V domains shown)
VH: B1 VH
VL: B1 VL
modifications: synthon CZ on reduced interchain Cys
B6: AbG-AAD (antibody, V domains shown)
VH: B1 VH
VL: B1 VL
modifications: synthon AAD on reduced interchain Cys
B7: AbA-AAD (antibody, V domains shown)
VH: B1 VH with N31R, L41P, K55N, L103F
VL: B1 VL with T30N, Y31S, A52T, D92A, E93Q
modifications: synthon AAD on reduced interchain Cys
B8: AbB-LB (antibody, V domains shown)
VH: B1 VH with L41P, L103F, Y105W
VL: B1 VL with T30N, Y31S, A52T, D92A, E93Q
modifications: synthon LB on reduced interchain Cys
B9: AbK-SE (antibody, V domains shown)
VH: B1 VH with N31R, L41P, K55N, L103F, Y105W
VL: B1 VL with I33V, A52S, D56H, E93D
modifications: synthon SE on reduced interchain Cys
B10: AbK-ZT (antibody, V domains shown)
VH: B1 VH with N31R, L41P, K55N, L103F, Y105W
VL: B1 VL with I33V, A52S, D56H, E93D
modifications: synthon ZT on reduced interchain Cys
B11: AbB-TV (antibody, V domains shown)
VH: B1 VH with L41P, L103F, Y105W
VL: B1 VL with T30N, Y31S, A52T, D92A, E93Q
modifications: synthon TV on reduced interchain Cys
B12: AbG-SE (antibody, V domains shown)
VH: B1 VH
VL: B1 VL
modifications: synthon SE on reduced interchain Cys
B13: AbG-YY (antibody, V domains shown)
VH: B1 VH
VL: B1 VL
modifications: synthon YY on reduced interchain Cys
B14: AbA-TV (antibody, V domains shown)
VH: B1 VH with N31R, L41P, K55N, L103F
VL: B1 VL with T30N, Y31S, A52T, D92A, E93Q
modifications: synthon TV on reduced interchain Cys
B15: AbG-TV (antibody, V domains shown)
VH: B1 VH
VL: B1 VL
modifications: synthon TV on reduced interchain Cys
B16: AbK-YY (antibody, V domains shown)
VH: B1 VH with N31R, L41P, K55N, L103F, Y105W
VL: B1 VL with I33V, A52S, D56H, E93D
modifications: synthon YY on reduced interchain Cys
B17: AbG-XW (antibody, V domains shown)
VH: B1 VH
VL: B1 VL
modifications: synthon XW on reduced interchain Cys
B18: AbA-ZT (antibody, V domains shown)
VH: B1 VH with N31R, L41P, K55N, L103F
VL: B1 VL with T30N, Y31S, A52T, D92A, E93Q
modifications: synthon ZT on reduced interchain Cys
B19: AbG-WD (antibody, V domains shown)
VH: B1 VH
VL: B1 VL
modifications: synthon WD on reduced interchain Cys
B20: AbA-LB (antibody, V domains shown)
VH: B1 VH with N31R, L41P, K55N, L103F
VL: B1 VL with T30N, Y31S, A52T, D92A, E93Q
modifications: synthon LB on reduced interchain Cys
B21: AbG-AAA (antibody, V domains shown)
VH: B1 VH
VL: B1 VL
modifications: synthon AAA on reduced interchain Cys
B22: AbK-KZ (antibody, V domains shown)
VH: B1 VH with N31R, L41P, K55N, L103F, Y105W
VL: B1 VL with I33V, A52S, D56H, E93D
modifications: synthon KZ on reduced interchain Cys
B23: AbB-AAD (antibody, V domains shown)
VH: B1 VH with L41P, L103F, Y105W
VL: B1 VL with T30N, Y31S, A52T, D92A, E93Q
modifications: synthon AAD on reduced interchain Cys
B24: AbG-SR (antibody, V domains shown)
VH: B1 VH
VL: B1 VL
modifications: synthon SR on reduced interchain Cys
B25: AbA-TX (antibody, V domains shown)
VH: B1 VH with N31R, L41P, K55N, L103F
VL: B1 VL with T30N, Y31S, A52T, D92A, E93Q
modifications: synthon TX on reduced interchain Cys
B26: AbK-AAA (antibody, V domains shown)
VH: B1 VH with N31R, L41P, K55N, L103F, Y105W
VL: B1 VL with I33V, A52S, D56H, E93D
modifications: synthon AAA on reduced interchain Cys
B27: AbG-LB (antibody, V domains shown)
VH: B1 VH
VL: B1 VL
modifications: synthon LB on reduced interchain Cys
B28: AbA-ZZ (antibody, V domains shown)
VH: B1 VH with N31R, L41P, K55N, L103F
VL: B1 VL with T30N, Y31S, A52T, D92A, E93Q
modifications: synthon ZZ on reduced interchain Cys
B29: AbK-LB (antibody, V domains shown)
VH: B1 VH with N31R, L41P, K55N, L103F, Y105W
VL: B1 VL with I33V, A52S, D56H, E93D
modifications: synthon LB on reduced interchain Cys
B30: AbG-YG (antibody, V domains shown)
VH: B1 VH
VL: B1 VL
modifications: synthon YG on reduced interchain Cys
B31: AbK-AAD (antibody, V domains shown)
VH: B1 VH with N31R, L41P, K55N, L103F, Y105W
VL: B1 VL with I33V, A52S, D56H, E93D
modifications: synthon AAD on reduced interchain Cys
B32: AbB-CZ (antibody, V domains shown)
VH: B1 VH with L41P, L103F, Y105W
VL: B1 VL with T30N, Y31S, A52T, D92A, E93Q
modifications: synthon CZ on reduced interchain Cys
B33: AbK-CZ (antibody, V domains shown)
VH: B1 VH with N31R, L41P, K55N, L103F, Y105W
VL: B1 VL with I33V, A52S, D56H, E93D
modifications: synthon CZ on reduced interchain Cys
B34: AbK-YG (antibody, V domains shown)
VH: B1 VH with N31R, L41P, K55N, L103F, Y105W
VL: B1 VL with I33V, A52S, D56H, E93D
modifications: synthon YG on reduced interchain Cys
B35: AbG-TX (antibody, V domains shown)
VH: B1 VH
VL: B1 VL
modifications: synthon TX on reduced interchain Cys
B36: AbK-TX (antibody, V domains shown)
VH: B1 VH with N31R, L41P, K55N, L103F, Y105W
VL: B1 VL with I33V, A52S, D56H, E93D
modifications: synthon TX on reduced interchain Cys
B37: AbB-TX (antibody, V domains shown)
VH: B1 VH with L41P, L103F, Y105W
VL: B1 VL with T30N, Y31S, A52T, D92A, E93Q
modifications: synthon TX on reduced interchain Cys
B38: AbK-WD (antibody, V domains shown)
VH: B1 VH with N31R, L41P, K55N, L103F, Y105W
VL: B1 VL with I33V, A52S, D56H, E93D
modifications: synthon WD on reduced interchain Cys
B39: AbB-WD (antibody, V domains shown)
VH: B1 VH with L41P, L103F, Y105W
VL: B1 VL with T30N, Y31S, A52T, D92A, E93Q
modifications: synthon WD on reduced interchain Cys
B40: AbA-WD (antibody, V domains shown)
VH: B1 VH with N31R, L41P, K55N, L103F
VL: B1 VL with T30N, Y31S, A52T, D92A, E93Q
modifications: synthon WD on reduced interchain Cys
B41: AbK-TV (antibody, V domains shown)
VH: B1 VH with N31R, L41P, K55N, L103F, Y105W
VL: B1 VL with I33V, A52S, D56H, E93D
modifications: synthon TV on reduced interchain Cys
B42: AbK-ZZ (antibody, V domains shown)
VH: B1 VH with N31R, L41P, K55N, L103F, Y105W
VL: B1 VL with I33V, A52S, D56H, E93D
modifications: synthon ZZ on reduced interchain Cys
B43: AbB-YY (antibody, V domains shown)
VH: B1 VH with L41P, L103F, Y105W
VL: B1 VL with T30N, Y31S, A52T, D92A, E93Q
modifications: synthon YY on reduced interchain Cys

biological target: human Epidermal Growth Factor Receptor (huEGFR) over-expressed in mcl-1-/- mouse embryonic fibroblasts (human, UniProt P00533 25-1210); test: cell-based or functional assay

Binder | huEGFR^+ mcl-1^-/- MEF EC50
B1 | 68 nM
B2 | 0.6 nM
B3 | 8.9 nM
B4 | 96 nM
B5 | 3.4 nM
B6 | 108 nM
B7 | 65 nM
B8 | 31 nM
B9 | 161 nM
B10 | 0.2 nM
B11 | 2.4 nM
B12 | 24 nM
B13 | > 500 nM
B14 | 3 nM
B15 | 2.6 nM
B16 | 47 nM
B17 | 19 nM
B18 | 104 nM
B19 | 5.8 nM
B20 | 27 nM
B21 | 220 nM
B22 | 224 nM

Binder | huEGFR^+ mcl-1^-/- MEF EC50
B23 | 4.6 nM
B24 | 7 nM
B25 | 16 nM
B26 | 3.4 nM
B27 | 24 nM
B28 | 186 nM
B29 | 17 nM
B30 | 1 nM
B31 | 0.4 nM
B32 | 5.9 nM
B33 | 0.1 nM
B34 | 37 nM
B35 | 5.3 nM
B36 | 0.79 nM
B37 | 11 nM
B38 | 35 nM
B39 | 23 nM
B40 | 304 nM
B41 | 0.15 nM
B42 | 45 nM
B43 | 51 nM

From patent US20190153108A1 (AbbVie / Abbott, published 2019)
